Patent US20230074436A1 (DENALI THERAPEUTICS, published 2023)
No end group written: not given here. *: point of attachment. Biotin = O=C1N[C@H]2[C@H](CS[C@H]2CCCCC(=O)*)N1

Columns and labels:
[1] = molecular target: T1, alpha-synuclein peptide 1-61 (human); assay: peptide ELISA
T1 construct: synthetic peptide coated on plate

[2] = molecular target: T2, alpha-synuclein peptide 1-95 (human); assay: peptide ELISA
T2 construct: synthetic peptide coated on plate

[3] = molecular target: alpha-synuclein peptide 1-112 (human); assay: peptide ELISA
[4] = molecular target: human alpha-synuclein monomer (human, UniProt P37840 1-140); assay: direct ELISA on coated antigen;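 note: plates coated with recombinant human, mouse or rat alpha-synuclein, purified antibody titrated 10 µg/mL down to 0.6 ng/mL for 1 h, bound antibody detected by anti-rat HRP with TMB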
rat alpha-synuclein = rat alpha-synuclein (rat, UniProt P37377 1-140); assay: direct ELISA on coated antigen;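 note: plates coated with recombinant human, mouse or rat alpha-synuclein, purified antibody titrated 10 µg/mL down to 0.6 ng/mL for 1 h, bound antibody detected by anti-rat HRP with TMB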
beta-synuclein protein = molecular target: T3, beta-synuclein protein (human, UniProt Q16143 1-134); assay: ELISA on coated synuclein, 1 ug/mL
T3 construct: species read from 'recombinant human alpha-synuclein protein, beta-synuclein protein, and gamma-synuclein protein'

gamma-synuclein protein = molecular target: T4, gamma-synuclein protein (human, UniProt O76070 1-127); assay: ELISA on coated synuclein, 1 ug/mL
T4 construct: species read from 'recombinant human alpha-synuclein protein, beta-synuclein protein, and gamma-synuclein protein'

asyn_113-127 [5] = molecular target: T5, asyn_113-127 (human); assay: Ala-scan peptide ELISA, row C, run 1
T5 construct: also called pep1
T5 peptide: Biotin-LEDMPVDPDNEAYEM

asyn_113-127_114A [6] = molecular target: T6, asyn_113-127_114A (human); assay: Ala-scan peptide ELISA, row C, run 1
T6 construct: substitution is already in the entry; also called pep3
T6 peptide: Biotin-LADMPVDPDNEAYEM

asyn_113-127_124G [7] = molecular target: T7, asyn_113-127_124G (human); assay: Ala-scan peptide ELISA, row C, run 1
T7 construct: substitution is already in the entry; also called pep13
T7 peptide: Biotin-LEDMPVDPDNEGYEM

asyn_113-127_124P [8] = molecular target: T8, asyn_113-127_124P (human); assay: Ala-scan peptide ELISA, row C, run 1
T8 construct: substitution is already in the entry; also called pep14
T8 peptide: Biotin-LEDMPVDPDNEPYEM

[9] = molecular target: T9, biotinylated human alpha-synuclein (human, UniProt P37840 1-140); assay: Ala-scan peptide ELISA, row C, run 1
asyn_113-127_115A [10] = molecular target: T10, asyn_113-127_115A (human); assay: Ala-scan peptide ELISA, row E, run 1
T10 construct: substitution is already in the entry; also called pep4
T10 peptide: Biotin-LEAMPVDPDNEAYEM

asyn_113-127_122A [11] = molecular target: T11, asyn_113-127_122A (human); assay: Ala-scan peptide ELISA, row E, run 1
T11 construct: substitution is already in the entry; also called pep11
T11 peptide: Biotin-LEDMPVDPDAEAYEM

asyn_113-127_124G [12] = molecular target: T7, asyn_113-127_124G; assay: Ala-scan peptide ELISA, row E, run 1
asyn_113-127_126A [13] = molecular target: T12, asyn_113-127_126A (human); assay: Ala-scan peptide ELISA, row E, run 1
T12 construct: substitution is already in the entry; also called pep16
T12 peptide: Biotin-LEDMPVDPDNEAYAM

asyn_113-127_127A [14] = molecular target: T13, asyn_113-127_127A (human); assay: Ala-scan peptide ELISA, row E, run 1
T13 construct: substitution is already in the entry; also called pep17
T13 peptide: Biotin-LEDMPVDPDNEAYEA

asyn_113-127 [15] = molecular target: T5, asyn_113-127; assay: Ala-scan peptide ELISA, row F, run 1
asyn_113-127_113A = molecular target: T14, asyn_113-127_113A (human); assay: Ala-scan peptide ELISA, row F, run 1
T14 construct: substitution is already in the entry; also called pep2
T14 peptide: Biotin-AEDMPVDPDNEAYEM

asyn_113-127_114A [16] = molecular target: T6, asyn_113-127_114A; assay: Ala-scan peptide ELISA, row F, run 1
asyn_113-127_115A [17] = molecular target: T10, asyn_113-127_115A; assay: Ala-scan peptide ELISA, row F, run 1
asyn_113-127_116A = molecular target: T15, asyn_113-127_116A (human); assay: Ala-scan peptide ELISA, row F, run 1
T15 construct: substitution is already in the entry; also called pep5
T15 peptide: Biotin-LEDAPVDPDNEAYEM

asyn_113-127_117A = molecular target: T16, asyn_113-127_117A (human); assay: Ala-scan peptide ELISA, row F, run 1
T16 construct: substitution is already in the entry; also called pep6
T16 peptide: Biotin-LEDMAVDPDNEAYEM

asyn_113-127_118A = molecular target: T17, asyn_113-127_118A (human); assay: Ala-scan peptide ELISA, row F, run 1
T17 construct: substitution is already in the entry; also called pep7
T17 peptide: Biotin-LEDMPADPDNEAYEM

asyn_113-127_119A = molecular target: T18, asyn_113-127_119A (human); assay: Ala-scan peptide ELISA, row F, run 1
T18 construct: substitution is already in the entry; also called pep8
T18 peptide: Biotin-LEDMPVAPDNEAYEM

asyn_113-127_120A = molecular target: T19, asyn_113-127_120A (human); assay: Ala-scan peptide ELISA, row F, run 1
T19 construct: substitution is already in the entry; also called pep9
T19 peptide: Biotin-LEDMPVDADNEAYEM

asyn_113-127_121A = molecular target: T20, asyn_113-127_121A (human); assay: Ala-scan peptide ELISA, row F, run 1
T20 construct: substitution is already in the entry; also called pep10
T20 peptide: Biotin-LEDMPVDPANEAYEM

asyn_113-127_122A [18] = molecular target: T11, asyn_113-127_122A; assay: Ala-scan peptide ELISA, row F, run 1
asyn_113-127_123A = molecular target: T21, asyn_113-127_123A (human); assay: Ala-scan peptide ELISA, row F, run 1
T21 construct: substitution is already in the entry; also called pep12
T21 peptide: Biotin-LEDMPVDPDNAAYEM

asyn_113-127_124G [19] = molecular target: T7, asyn_113-127_124G; assay: Ala-scan peptide ELISA, row F, run 1
asyn_113-127_124P [20] = molecular target: T8, asyn_113-127_124P; assay: Ala-scan peptide ELISA, row F, run 1
asyn_113-127_125A = molecular target: T22, asyn_113-127_125A (human); assay: Ala-scan peptide ELISA, row F, run 1
T22 construct: substitution is already in the entry; also called pep15
T22 peptide: Biotin-LEDMPVDPDNEAAEM

asyn_113-127_126A [21] = molecular target: T12, asyn_113-127_126A; assay: Ala-scan peptide ELISA, row F, run 1
asyn_113-127_127A [22] = molecular target: T13, asyn_113-127_127A; assay: Ala-scan peptide ELISA, row F, run 1
[23] = molecular target: T9, biotinylated human alpha-synuclein; assay: Ala-scan peptide ELISA, row F, run 1

antibody concentration at which ELISA is positive [1]: > 2600 ng/mL
antibody concentration at which ELISA is positive [2]: > 2600 ng/mL
antibody concentration at which ELISA is positive [3]: > 2600 ng/mL
Bmax (O.D. at 450 nm) [4]: 0.83 OD
EC50 [4]: 0.18 nM
Bmax (O.D. at 450 nm) (rat alpha-synuclein): 0.2 OD
EC50 (rat alpha-synuclein): 1.5 nM
binding result (beta-synuclein protein): no binding
binding result (gamma-synuclein protein): no binding
A450 (asyn_113-127 [5]): 0.48 OD
A450 (asyn_113-127_114A [6]): 0.417 OD
A450 (asyn_113-127_124G [7]): 0.34 OD
A450 (asyn_113-127_124P [8]): 0.051 OD
A450 [9]: 0.588 OD
A450 (asyn_113-127_115A [10]): 0.183 OD
A450 (asyn_113-127_122A [11]): 0.051 OD
A450 (asyn_113-127_124G [12]): 0.214 OD
A450 (asyn_113-127_126A [13]): 0.235 OD
A450 (asyn_113-127_127A [14]): 0.248 OD
A450 (asyn_113-127 [15]): 0.149 OD
A450 (asyn_113-127_113A): 0.151 OD
A450 (asyn_113-127_114A [16]): 0.153 OD
A450 (asyn_113-127_115A [17]): 0.089 OD
A450 (asyn_113-127_116A): 0.172 OD
A450 (asyn_113-127_117A): 0.174 OD
A450 (asyn_113-127_118A): 0.169 OD
A450 (asyn_113-127_119A): 0.05 OD
A450 (asyn_113-127_120A): 0.132 OD
A450 (asyn_113-127_121A): 0.153 OD
A450 (asyn_113-127_122A [18]): 0.05 OD
A450 (asyn_113-127_123A): 0.171 OD
A450 (asyn_113-127_124G [19]): 0.145 OD
A450 (asyn_113-127_124P [20]): 0.044 OD
A450 (asyn_113-127_125A): 0.044 OD
A450 (asyn_113-127_126A [21]): 0.149 OD
A450 (asyn_113-127_127A [22]): 0.144 OD
A450 [23]: 0.243 OD
B1: 20H4 (antibody, rat IgG2b, V domains shown)
VH: AVQLVESGGGLVQPKESLKISCAASGFTFSNAAMYWVRQAPGKGLELLARIRTKPNNYATYHADSVKGRFTISRDDSQSMVYLHMGNLKTEDTAMYYCTADMATGDYWGPGVMVTVSS
VL: DIQMTQSPPVLSVSVGDRVTLSCKASQNINKNLDWYQQKHGEAPKPLIYSTNNLQTGVPSRFSGSGSGTDYTLTISSLQPEDVATYYCYQYKSAWTFGGGTKLELR
notes: also called clone 20H4; rat 20H4
